US20140178332A1 (published 2014)

Key:
[1] = target: T1, recombinant purified human IL-12 p70 (human, UniProt P29459 23-219); assay: competition ELISA on coated human IL-12, competitor of 0.8 µg/ml biotinylated 8E1, average
T1 construct: Disulfide-linked heterodimer of p35 and p40; also called hIL-12; Hu IL-12
T1 sequence 1: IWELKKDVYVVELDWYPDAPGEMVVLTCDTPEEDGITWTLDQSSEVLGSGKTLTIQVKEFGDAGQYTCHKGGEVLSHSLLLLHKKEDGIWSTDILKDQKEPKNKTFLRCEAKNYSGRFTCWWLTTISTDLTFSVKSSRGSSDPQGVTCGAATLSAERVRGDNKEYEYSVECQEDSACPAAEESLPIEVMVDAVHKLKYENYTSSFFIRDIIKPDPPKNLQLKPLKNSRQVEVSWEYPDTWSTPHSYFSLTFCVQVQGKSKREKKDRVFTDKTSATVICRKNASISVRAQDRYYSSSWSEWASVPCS
T1 sequence 2: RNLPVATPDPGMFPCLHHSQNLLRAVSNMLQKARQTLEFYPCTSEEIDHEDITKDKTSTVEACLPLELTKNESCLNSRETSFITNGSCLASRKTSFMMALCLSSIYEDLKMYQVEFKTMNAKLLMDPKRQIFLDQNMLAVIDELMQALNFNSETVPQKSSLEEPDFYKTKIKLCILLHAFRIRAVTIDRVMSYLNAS
Method: (§1) MaxiSorp ELISA plates (Nalge Nunc International) were coated overnight at 4° C. with 100 μl/well of 1.0 μg/ml human IL-12 in 0.2 M sodium carbonate-bicarbonate buffer, pH 9.4, washed with Wash Buffer (PBS containing 0.1% Tween 20), and blocked for 1 hr at room temperature with 300 μl/well of SuperBlock Blocking Buffer in TBS (Pierce Chemical Company). […] As isotype controls, 100 μl/well of 100 μg/ml mouse IgG 1/κ (MuFd79) or humanized IgG1/κ (HuFd79) monoclonal antibodies in ELISA buffer was used. As a no-competitor control, 100 μl/well of ELISA Buffer was used. After incubating the plates for 1 hr at room temperature, and washing with Wash Buffer, bound antibodies were detected using 100 μl/well of 1 μg/ml HRP-conjugated streptavidin (Pierce Chemical Company) in ELISA buffer. After incubating for 1 hr at room temperature, and washing with Wash Buffer, color development was performed by adding 100 μl/well of ABTS Peroxidase Substrate/Peroxidase Solution B (KPL, Inc.). After incubating for 5 min at room temperature, color development was stopped by adding 50 μl/well of 2% oxalic acid. Absorbance was read at 415 nm.
(§2) The affinity of 8E1.4, 8E1.5 and 8E1.6 to human IL-12 was analyzed by competition ELISA as described above.

[2] = target: T1, recombinant purified human IL-12 p70; assay: competition ELISA on coated human IL-12, competitor of 0.8 µg/ml biotinylated 8E1, Expt. 3
Method: as §1, §2

[3] = target: T1, recombinant purified human IL-12 p70; assay: competition ELISA on coated human IL-12, competitor of 0.8 µg/ml biotinylated 8E1, Expt. 1
Method: as §1, §2

[4] = target: T1, recombinant purified human IL-12 p70; assay: cell-based or functional assay
[5] = target: T2, recombinant purified cyno IL-12 p70 (cynomolgus monkey); assay: cell-based or functional assay
T2 chain 1: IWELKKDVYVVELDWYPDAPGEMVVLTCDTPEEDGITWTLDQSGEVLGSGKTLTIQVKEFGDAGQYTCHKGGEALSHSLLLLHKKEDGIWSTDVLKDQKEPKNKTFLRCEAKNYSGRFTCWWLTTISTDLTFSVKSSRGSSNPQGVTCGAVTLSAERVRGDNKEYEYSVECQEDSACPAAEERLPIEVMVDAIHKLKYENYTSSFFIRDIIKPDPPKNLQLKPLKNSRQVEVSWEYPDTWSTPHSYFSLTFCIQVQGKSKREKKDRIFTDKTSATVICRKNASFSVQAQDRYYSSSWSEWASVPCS
T2 chain 2: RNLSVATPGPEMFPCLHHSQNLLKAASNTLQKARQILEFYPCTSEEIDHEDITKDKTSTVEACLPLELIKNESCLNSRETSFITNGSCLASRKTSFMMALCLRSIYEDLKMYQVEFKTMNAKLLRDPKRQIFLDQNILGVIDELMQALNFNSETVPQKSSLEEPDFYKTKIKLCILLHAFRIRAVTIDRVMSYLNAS

[6] = target: T1, recombinant purified human IL-12 p70; assay: SPR (Biacore), mAb captured on anti-mouse IgG Fc, IL-12 p70 as analyte
Method: The BIACORE assay (Biacore, Inc, Piscataway, N.J.) determines the affinity of antibodies with kinetic measurements of on-, off-rate constants. Binding of antibodies to recombinant purified human IL-12 p70 or recombinant purified human IL-12 p40 were determined by surface plasmon resonance-based measurements with a Biacore® 3000 instrument (Biacore® AB, Uppsala, Sweden) using running HBS-EP (10 mM HEPES [pH 7.4], 150 mM NaCl, 3 mM EDTA, and 0.005% surfactant P20) at 25° C. All chemicals were obtained from Biacore® AB (Uppsala, Sweden) or otherwise from a different source as described in the text. Approximately 5000 RU of goat anti-mouse IgG, (Fcγ), fragment specific polyclonal antibody (Pierce Biotechnology Inc, Rockford, Ill.) diluted in 10 mM sodium acetate (pH 4.5) was directly immobilized across a CM5 research grade biosensor chip using a standard amine coupling kit according to manufacturer's instructions and procedures at 25 μg/ml. Unreacted moieties on the biosensor surface were blocked with ethanolamine. Modified carboxymethyl dextran surface in flowcell 2 and 4 was used as a reaction surface. Unmodified carboxymethyl dextran without goat anti-mouse IgG in flow cell 1 and 3 was used as the reference surface. For kinetic analysis, rate equations derived from the 1:1 Langmuir binding model were fitted simultaneously to association and dissociation phases of all eight injections (using global fit analysis) with the use of Biaevaluation 4.0.1 software. Purified antibodies were diluted in HEPES-buffered saline for capture across goat anti-mouse IgG specific reaction surfaces. Mouse antibodies to be captured as a ligand (25 μg/ml) were injected over reaction matrices at a flow rate of 5 μl/min. The association and dissociation rate constants, kₒₙ (unit M⁻¹ s⁻¹) and koff (unit s⁻¹) were determined under a continuous flow rate of 25 μl/min. Rate constants were derived by making kinetic binding measurements at ten different antigen concentrations ranging from 10-200 nM. The equilibrium dissociation constant (unit M) of the reaction between mouse antibodies and recombinant purified human IL-12 p70 or recombinant purified human IL-12 p40 was then calculated from the kinetic rate constants by the following formula: KD=koff/kₒₙ. Binding is recorded as a function of time and kinetic rate constants are calculated.

IC50 [1]: 2.56 µg/mL
IC50 [2]: 2.28 µg/mL
IC50 [3]: 2.63 µg/mL
Average IC50 (nM) Human IL-12, PHA blast IFN-γ assay [4]: 0.19 nM
Average IC50 (nM) Cyno IL-12, PHA blast IFN-γ assay [5]: 0.18 nM
Kd [6]: 0.074 nM
koff [6]: 5.1e-05 s⁻¹
kon [6]: 690000 M⁻¹ s⁻¹
B1: murine anti-human IL-12p40 monoclonal antibody 8E1 (antibody, V domains shown)
VH: EVKLVESGGGLVQPGGSRKLSCAASGFTFSDYGMVWVRQAPGKGLEWVASISSGSSNIYYADTVKGRFTISRDDPNNTLFLQMRSLRSEDTAMYYCARNPYWGQGTTLTVSS
VL: DIVMTQSQKFMSTSVGDRVSVTCKASQNVGTNVAWYQQKPGQSPKGLIYSASHRYSGVPDRFAGSGSGTDFTLTISNVQSEDLAEYFCQQYNSYPLTFGGGTKLELKR
notes: Murine mAb; also called biotinylated 8E1
